Assay results from patent publication US20020082202A1 (GlaxoSmithKline, published 2002).
No end group written: not given here.

Molecular target: T1, HFGAN72 receptor (human, UniProt O43613 1-425)
T1 sequence (looked up): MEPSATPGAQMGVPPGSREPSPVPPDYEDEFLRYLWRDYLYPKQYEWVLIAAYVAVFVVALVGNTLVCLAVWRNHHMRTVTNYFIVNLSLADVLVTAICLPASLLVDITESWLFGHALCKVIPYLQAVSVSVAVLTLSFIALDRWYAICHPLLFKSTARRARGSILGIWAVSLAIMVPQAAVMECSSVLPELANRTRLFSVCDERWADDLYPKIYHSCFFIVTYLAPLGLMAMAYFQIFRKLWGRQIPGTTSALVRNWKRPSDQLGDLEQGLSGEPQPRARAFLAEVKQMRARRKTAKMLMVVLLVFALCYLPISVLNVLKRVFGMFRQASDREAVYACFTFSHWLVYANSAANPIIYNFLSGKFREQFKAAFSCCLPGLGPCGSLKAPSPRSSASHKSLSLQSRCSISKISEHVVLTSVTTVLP
Assay: cell-based or functional assay

- Intracellular calcium levels in Fura-loaded 293 cells transfected with the receptor; EC50: ~0.05 µg/mL
Binder: QPLPDCCRQKTCSCRLYELLHGAGNHAAGILTL (cysteine pairing not given here; also: N-terminus blocked) [Lig 72A (HFGAN72 receptor ligand)]
